Test results from doi:10.1101/794511.

Key:
Test in all cases: EMSA
[1] = biological target: T1, E47 bHLH fragment (Mus musculus, UniProt P15806-2 430-648)
T1 sequence: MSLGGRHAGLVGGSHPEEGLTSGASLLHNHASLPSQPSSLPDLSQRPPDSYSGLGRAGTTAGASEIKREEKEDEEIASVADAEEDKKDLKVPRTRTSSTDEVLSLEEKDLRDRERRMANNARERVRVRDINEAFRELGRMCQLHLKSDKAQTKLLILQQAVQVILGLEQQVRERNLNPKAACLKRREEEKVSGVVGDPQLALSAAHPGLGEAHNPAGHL

[2] = biological target: Gsx2 N253A homeodomain fragment (Mus musculus, UniProt P31316 167-305, N253A)
[3] = biological target: Gsx2 homeodomain fragment (Mus musculus, UniProt P31316 167-305)
Gsx2 homeodomain fragment, sequence (P31316 167-305): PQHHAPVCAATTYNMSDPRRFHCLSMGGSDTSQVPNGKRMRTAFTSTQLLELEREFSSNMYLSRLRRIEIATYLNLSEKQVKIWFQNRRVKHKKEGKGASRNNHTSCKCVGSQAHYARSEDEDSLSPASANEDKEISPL

Gsx2 N253A homeodomain fragment, sequence (P31316 167-305 N253A): as the sequence (P31316 167-305) above, with N87A counted along it

B1: Ac-Luc E2 (dsDNA)
DNA 1: CACCAACAGCTGCGTTTTTAGTGCGGGCGTGGCT
DNA 2: AGCCACGCCCGCACTAAAAACGCAGCTGTTGGTG
B1: binds [1].

B2: Gsx2_site (dsDNA)
DNA 1: CAGAGTGTAATTAACATTCAGTAGTGCGGGCGTGGCT
DNA 2: AGCCACGCCCGCACTACTGAATGTTAATTACACTCTG
B2: no binding [2]; binds [3].
